B1: Retinoic acid receptor beta, residues 85 to 161; numbered along this chain, P10826 (parent)
chain: YKPCFVCQDKSSGYHYGVSACEGCKGFFRRSIQKNMIYTCHRDKNCVINKVTRNRCQYCRLQKCFEVGMSKESVRND

Variants of: B1
Assay: abundance fitness (aPCA) (normalised: wild type 0, dead -1); higher = more abundant; growth selection in yeast, the domain comes from the species named
Settings: Homo sapiens

Abundance fitness: each site, then its substitutions
I48: T -0.161; V -0.065; W -0.647
N49: A -0.284; C -0.598; D 0.235; E 0.003; F -0.368; G -0.255; H -0.372; I -0.239; K -0.345; L -0.218; P -0.431; Q -0.328; R -0.43; S -0.116; T 0.017; V -0.546; W -0.327; Y -0.37
K50: A 0.145; C -0.218; D 0.225; G 0.153; H 0.094; I 0.244; M 0.124; N 0.021; P 0.09; Q 0.158; R 0.153; S 0.231; T 0.125; V 0.208; W 0.25; Y 0.126
V51: A -0.115; C -0.249; D 0.255; E 0.171; F 0.13; I 0.073; K -0.013; L 0.238; M 0.166; N -0.014; P -0.218; Q 0.076; R -0.146; S 0.011; T 0.019; W 0.282; Y -0.003
T52: C -0.451; D 0.046; E 0.123; F -0.188; G -0.029; H -0.397; I -0.053; K -0.015; L 0.038; M 0.02; N 0.023; Q 0.027; R -0.745; S 0.032; V -0.021; W -0.047
R53: A 0.183; C 0.084; D -0.018; E 0.102; F 0.057; G 0.003; H 0.016; I 0.127; K 0.071; L 0.148; M 0.195; N 0.123; P 0.103; Q 0.19; S 0.126; T -0.002; V 0.211; W -0.026; Y 0.116
N54: A 0.074; C -0.267; D 0.345; E 0.217; F 0.089; G -0.007; H 0.067; I 0.233; K 0.183; M 0.216; P -0.003; Q 0.183; R 0.036; S 0.136; T 0.185; V 0.11; W -0.088; Y 0.112
R55: A 0.18; C 0.102; D 0.244; E 0.277; F -0.343; G 0.262; H 0.205; I 0.155; K 0.198; L 0.183; M 0.25; N 0.26; P 0.218; S 0.265; T 0.239; V 0.227; W 0.149; Y 0.077
C56: A -1.16; D -0.623; E -0.703; F -0.946; G -0.773; H -0.581; I -1.05; K -0.978; L -0.907; M -0.768; N -0.953; P -0.763; R -0.928; S -0.749; T -0.668; W -0.893; Y -0.567
Q57: A 0.158; C 0.078; D 0.353; E 0.268; G 0.2; H 0.079; K -0.245; N -0.021; P 0.141; S 0.144; T -0.251; V -0.385; W 0.104; Y 0.163
Y58: A 0.107; C 0.046; D -0.131; E -0.214; G -0.134; H -0.111; I -0.898; K -0.147; L -0.545; M -0.237; N -0.634; P -1.13; Q -0.259; R -0.325; T -0.501; V -0.679; W 0.107
C59: A -0.619; E -0.916; F -0.872; G -0.758; H -0.817; I -0.494; K -0.998; L -0.84; M -0.732; N -0.834; P -0.777; Q -0.983; R -0.869; S -0.294; T -0.499; V -0.941; W -0.823; Y -0.831
R60: C -0.155; D -0.901; E -0.598; G -0.491; I -0.653; K -0.039; L 0.21; M 0.199; N -0.845; P -0.722; Q -0.003; S -0.583; T -0.001; V -0.369; W 0.114; Y -0.002
L61: A -0.591; C -0.657; D -0.516; E -0.635; F -0.13; G -0.605; H -0.503; I -0.207; K -0.946; M -0.023; P -0.754; Q -0.336; R -0.8; S -0.995; V -0.499; W -0.605; Y -0.181
Q62: A 0.043; C -0.268; D -0.107; E 0.017; G -0.317; H 0.123; I 0.018; K 0.125; L -0.042; M -0.033; N -0.056; P -0.814; S 0.012; T -0.004; V 0.026; W -0.203
K63: A -0.306; C -0.641; D -0.413; E -0.588; G -0.525; H -0.027; I -0.321; L -0.272; N -0.519; P -0.847; Q -0.305; R -0.041; S -0.443; T -0.11; W -0.772; Y -0.37
C64: A -0.329; D -0.996; E -0.799; G -0.658; H -0.646; I -0.729; K -0.885; L -0.734; M -0.412; N -0.969; P -0.689; Q -0.426; R -0.732; S -0.461; T -0.769; V -0.628; Y -1.17
F65: A -0.291; C -0.197; D -0.423; E -0.024; G -0.442; H -0.253; I 0.119; K -0.081; L 0.014; M 0.026; N -0.128; P -0.542; Q -0.156; R -0.22; S -0.31; T -0.02; V -0.019; W -0.174; Y -0.009
E66: A -0.105; C -0.153; D 0.096; F -0.036; G -0.014; I -0.092; L -0.039; M 0.082; N -0.028; P -0.595; Q -0.011; R 0.011; S -0.078; T 0.008; V -0.032; W -0.139; Y -0.136
V67: A -0.012; C -0.172; D -0.8; E -0.282; F -0.054; G -0.161; H -0.354; K 0.017; L -0.084; M -0.063; Q -0.035; R -0.291; S -0.059; T -0.178; W -0.636; Y -0.645
G68: A -0.804; C -0.698; D -0.663; E -0.763; F -0.204; H -0.743; I -0.95; K -0.392; L -0.807

From the Human Domainome abundance scans (Beltran et al. 2025)
